Results as given in patent US20160009800A1.

Experiments:
[1] = molecular target: human insulin receptor complexed with human insulin (human) (UniProt P06213); experiment: KinExA, affinity with insulin against affinity without insulin
[2] = molecular target: human insulin receptor complexed with human insulin (human) (UniProt P06213); experiment: KinExA antibody depletion by hINSR8-CHOK1 cells, with 175 nM insulin
[3] = molecular target: human insulin receptor (human) (UniProt P06213); experiment: KinExA antibody depletion by hINSR8-CHOK1 cells, without insulin
[4] = molecular target: human insulin receptor complexed with human insulin (human) (UniProt P06213); experiment: FACS, serum-starved IM-9 cells pre-exposed to human insulin
[5] = molecular target: human insulin receptor (human) (UniProt P06213); experiment: FACS, serum-starved IM-9 cells, no insulin
[6] = molecular target: human insulin receptor (human) (UniProt P06213); experiment: FACS, serum-starved IM-9 cells; insulin state of the control not stated

| Fold Improvement with Insulin [1] [fold] | Kd [2] [nM] | Kd [3] [nM] | MFI [4] | MFI [5] | MFI [6] | Substance |
| --- | --- | --- | --- | --- | --- | --- |
| 3 | 0.16 | 0.48 | 34.9 | 18.4 | – | 83-7 (antibody) |
| – | – | – | – | – | 3.83 | Neg Control |
